Tested on: intracellular proteome of ENR+CD and ENR organoids
Test: LC-MS/MS TMT proteomics of ENR+CD versus ENR organoids
Type: cell-based, C57BL/6 mice
Settings: for Average logFC / M1-1 Log2 Median Normalized / M1-2 Log2 Median Normalized / M2-1 Log2 Median Normalized / M2-2 Log2 Median Normalized: protein abundance, ENR+CD versus ENR organoids; for Average logFC: aggregate of the four sample pairs; for M1-1 Log2 Median Normalized: replicate M1-1; for M1-1 Log2 Median Normalized / M1-2 Log2 Median Normalized / M2-1 Log2 Median Normalized / M2-2 Log2 Median Normalized: log2 ratio; for M1-2 Log2 Median Normalized: replicate M1-2; for M2-1 Log2 Median Normalized: replicate M2-1; for M2-2 Log2 Median Normalized: replicate M2-2; for change: up = enriched in ENR+CD, down = enriched in ENR, FDR<0.05 and log fold change cut-off
Description: Because PCs are highly secretory, protein-rich cells, Applicants sought to assess the total intracellular proteome between conditions through liquid chromatography mass spectrometry (LC-MS/MS)-based proteomics. Applicants quantified relative protein abundance across eight samples using isobaric mass tag labeling from four ENR and four ENR+CD samples (M1-1 through M2-2, first digit denotes biological donor, second digit denotes technical replicate) (FIG. 3A). Samples were processed and analyzed in a single 10-plex by LC-MS/MS (FIG. 9A).
To affirm the reproducibility of the associated proteins in the ENR+CD-enriched proteome, Applicants performed relative quantification within differentiation sets.
Mass spectrometry proteomics sample preparation, sequencing, and quantification. Organoid cell pellets were isolated from Matrigel with mechanical dissociation and washed (cold PBS 5X) to remove residual extracellular protein. Proteins were extracted from cell pellets with 8 M urea (Sigma), reduced with 5 mM DTT (Thermo Fisher Pierce) for 45 minutes, alkylated with 10 mM IAA (Sigma) for 45 minutes in the dark, and double digested with both Lysyl Endopeptidase “LysC” (Wako) and trypsin (Promega) overnight at RT. A small aliquot of cellular lysate was removed from each sample for protein quantification via the Pierce™ BCA Protein Assay Kit (Pierce). After proteolytic digestion, the samples were quenched using formic acid to a final concentration of 1.0% and subsequently desalted on 10 mg OASIS HLB solid phase columns (Waters).
The peptides were labeled with TMT-10 isobaric mass tag reagent according to manufacturer's instructions (ThermoFisher Scientific). The peptides were labeled at a 1:8 ratio of peptide to TMT reagent, followed by 1-hour incubation at RT with bench top shaking at 850 rpm. After incubation, a […] of labeled tryptic peptide was removed from each labeled condition, desalted with C18 stage tips, and analyzed via LC-MS/MS using a Thermo Fisher Q Exactive Plus Hybrid Mass Spectrometer (QE-Plus) coupled to a Thermo Fisher EASY-nLC 1000 liquid chromatograph to ensure isobaric label incorporation >95%. An additional 1.0 μg of labeled tryptic peptide was removed from each channel, mixed together, desalted on a C18 stage tip, and analyzed via LC-MS to ensure equal relative protein loads. During these quality control steps, the labeled peptides were stored, unquenched at −80° C.

B1: P02772 (protein, UniProt P02772 1-605, looked up)
chain: MKWITPASLILLLHFAASKALHENEFGIASTLDSSQCVTEKNVLSIATITFTQFVPEATEEEVNKMTSDVLAAMKKNSGDGCLESQLSVFLDEICHETELSNKYGLSGCCSQSGVERHQCLLARKKTAPASVPPFQFPEPAESCKAHEENRAVFMNRFIYEVSRRNPFMYAPAILSLAAQYDKVVLACCKADNKEECFQTKRASIAKELREGSMLNEHVCSVIRKFGSRNLQATTIIKLSQKLTEANFTEIQKLALDVAHIHEECCQGNSLECLQDGEKVMTYICSQQNILSSKIAECCKLPMIQLGFCIIHAENGVKPEGLSLNPSQFLGDRNFAQFSSEEKIMFMASFLHEYSRTHPNLPVSVILRIAKTYQEILEKCSQSGNLPGCQDNLEEELQKHIEESQALSKQSCALYQTLGDYKLQNLFLIGYTRKAPQLTSAELIDLTGKMVSIASTCCQLSEEKWSGCGEGMADIFIGHLCIRNEASPVNSGISHCCNSSYSNRRLCITSFLRDETYAPPPFSEDKFIFHKDLCQAQGKALQTMKQELLINLVKQKPELTEEQLAAVTADFSGLLEKCCKAQDQEVCFTEEGPKLISKTRDALGV
modifications: full-length
  Average logFC: −1.438
  M1-1 Log2 Median Normalized: −1.616
  M1-2 Log2 Median Normalized: −1.696
  M2-1 Log2 Median Normalized: −1.1235
  M2-2 Log2 Median Normalized: −1.316
  change: down

B2: P03958 (protein, UniProt P03958 1-352, looked up)
chain: MAQTPAFNKPKVELHVHLDGAIKPETILYFGKKRGIALPADTVEELRNIIGMDKPLSLPGFLAKFDYYMPVIAGCREAIKRIAYEFVEMKAKEGVVYVEVRYSPHLLANSKVDPMPWNQTEGDVTPDDVVDLVNQGLQEGEQAFGIKVRSILCCMRHQPSWSLEVLELCKKYNQKTVVAMDLAGDETIEGSSLFPGHVEAYEGAVKNGIHRTVHAGEVGSPEVVREAVDILKTERVGHGYHTIEDEALYNRLLKENMHFEVCPWSSYLTGAWDPKTTHAVVRFKNDKANYSLNTDDPLIFKSTLDTDYQMTKKDMGFTEEEFKRLNINAAKSSFLPEEEKKELLERLYREYQ
modifications: full-length
  Average logFC: 1.34
  M1-1 Log2 Median Normalized: 1.339
  M1-2 Log2 Median Normalized: 0.074
  M2-1 Log2 Median Normalized: 1.5985
  M2-2 Log2 Median Normalized: 1.501
  change: up

B3: P04184 (protein, UniProt P04184 1-233, looked up)
chain: MSYINLPTVLPSSPSKTRGQIQVILGPMFSGKSTELMRRVRRFQIAQYKCLVIKYAKDTRYSNSFSTHDRNTMDALPACMLRDVTQESLGVAVIGIDEGQFFPDIVDFCEMMANEGKTVIVAALDGTFQRKAFGSILNLVPLAESVVKLTAVCMECFREAAYTKRLGLEKEVEVIGGADKYHSVCRLCYFKKSSAQTAGSDNKNCLVLGQPGEALVVRKLFASQQVLQYNSAN
modifications: full-length
  Average logFC: −1.187
  M1-1 Log2 Median Normalized: −1.268
  M1-2 Log2 Median Normalized: −1.033
  M2-1 Log2 Median Normalized: −1.0175
  M2-2 Log2 Median Normalized: −1.428
  change: down

B4: P06728 (protein, UniProt P06728 1-395, looked up)
chain: MFLKAAVLTLALVAITGTRAEVTSDQVANVVWDYFTQLSNNAKEAVEQFQKTDVTQQLSTLFQDKLGDASTYADGVHNKLVPFVVQLSGHLAQETERVKEEIKKELEDLRDRMMPHANKVTQTFGENMQKLQEHLKPYAVDLQDQINTQTQEMKLQLTPYIQRMQTTIKENVDNLHTSMMPLATNLKDKFNRNMEELKGHLTPRANELKATIDQNLEDLRRSLAPLTVGVQEKLNHQMEGLAFQMKKNAEELQTKVSAKIDQLQKNLAPLVEDVQSKVKGNTEGLQKSLEDLNRQLEQQVEEFRRTVEPMGEMFNKALVQQLEQFRQQLGPNSGEVESHLSFLEKSLREKVNSFMSTLEKKGSPDQPQALPLPEQAQEQAQEQAQEQVQPKPLES
modifications: full-length
  Average logFC: −1.57
  M1-1 Log2 Median Normalized: −1.343
  M1-2 Log2 Median Normalized: −2.171
  M2-1 Log2 Median Normalized: −1.8605
  M2-2 Log2 Median Normalized: −0.907
  change: down

B5: P0C027 (protein, UniProt P0C027 1-164, looked up)
chain: MKCKPNQTRTYDPEGFKKRAACLCFRSEREDEVLLVSSSRYPDRWIVPGGGMEPEEEPDGAAVREVYEEAGVKGKLGRLLGVFEQNQDRKHRTYVFVLTVTELLEDWEDSVSIGRKREWFKIEDAIKVLQCHKPVHAEYLEKLKLGGSPTNGNSAAPSPPESEP
modifications: full-length
  Average logFC: 1.134
  M1-1 Log2 Median Normalized: 1.368
  M1-2 Log2 Median Normalized: 1.133
  M2-1 Log2 Median Normalized: 0.8135
  M2-2 Log2 Median Normalized: 1.192
  change: up

B6: P11725 (protein, UniProt P11725 1-354, looked up)
chain: MLSNLRILLNNAALRKGHTSVVRHFWCGKPVQSQVQLKGRDLLTLKNFTGEEIQYMLWLSADLKFRIKQKGEYLPLLQGKSLGMIFEKRSTRTRLSTETGFALLGGHPSFLTTQDIHLGVNESLTDTARVLSSMTDAVLARVYKQSDLDTLAKEASIPIVNGLSDLYHPIQILADYLTLQEHYGSLKGLTLSWIGDGNNILHSIMMSAAKFGMHLQAATPKGYEPDPNIVKLAEQYAKENGTKLSMTNDPLEAARGGNVLITDTWISMGQEDEKKKRLQAFQGYQVTMKTAKVAASDWTFLHCLPRKPEEVDDEVFYSPRSLVFPEAENRKWTIMAVMVSLLTDYSPVLQKPKF
modifications: full-length
  Average logFC: −1.477
  M1-1 Log2 Median Normalized: −1.478
  M1-2 Log2 Median Normalized: −1.458
  M2-1 Log2 Median Normalized: −2.2695
  M2-2 Log2 Median Normalized: −1.132
  change: down

B7: P18242 (protein, UniProt P18242 1-410, looked up)
chain: MKTPGVLLLILGLLASSSFAIIRIPLRKFTSIRRTMTEVGGSVEDLILKGPITKYSMQSSPKTTEPVSELLKNYLDAQYYGDIGIGTPPQCFTVVFDTGSSNLWVPSIHCKILDIACWVHHKYNSDKSSTYVKNGTSFDIHYGSGSLSGYLSQDTVSVPCKSDQSKARGIKVEKQIFGEATKQPGIVFVAAKFDGILGMGYPHISVNNVLPVFDNLMQQKLVDKNIFSFYLNRDPEGQPGGELMLGGTDSKYYHGELSYLNVTRKAYWQVHMDQLEVGNELTLCKGGCEAIVDTGTSLLVGPVEEVKELQKAIGAVPLIQGEYMIPCEKVSSLPTVYLKLGGKNYELHPDKYILKVSQGGKTICLSGFMGMDIPPPSGPLWILGDVFIGSYYTVFDRDNNRVGFANAVVL
modifications: full-length
  Average logFC: 1.296
  M1-1 Log2 Median Normalized: 1.508
  M1-2 Log2 Median Normalized: 1.211
  M2-1 Log2 Median Normalized: 0.9875
  M2-2 Log2 Median Normalized: 1.479
  change: up

B8: P19246 (protein, UniProt P19246 1-1090, looked up)
chain: MMSFGSADALLGAPFAPLHGGGSLHYSLSRKAGPGGTRSAAGSSSGFHSWARTSVSSVSASPSRFRGAASSTDSLDTLSNGPEGCVVAAVAARSEKEQLQALNDRFAGYIDKVRQLEAHNRSLEGEAAALRQQQAGRAAMGELYEREVREMRGAVLRLGAARGQLRLEQEHLLEDIAHVRQRLDEEARQREEAEAAARALARFAQEAEAARVELQKKAQALQEECGYLRRHHQEEVGELLGQIQGCGAAQAQAQAEARDALKCDVTSALREIRAQLEGHAVQSTLQSEEWFRVRLDRLSEAAKVNTDAMRSAQEEITEYRRQLQARTTELEALKSTKESLERQRSELEDRHQADIASYQDAIQQLDSELRNTKWEMAAQLREYQDLLNVKMALDIEIAAYRKLLEGEECRIGFGPSPFSLTEGLPKIPSISTHIKVKSEEMIKVVEKSEKETVIVEGQTEEIRVTEGVTEEEDKEAQGQEGEEAEEGEEKEEEEGAAATSPPAEEAASPEKETKSRVKEEAKSPGEAKSPGEAKSPAEAKSPGEAKSPGEAKSPGEAKSPAEPKSPAEPKSPAEAKSPAEPKSPATVKSPGEAKSPSEAKSPAEAKSPAEAKSPAEAKSPAEAKSPAEAKSPAEAKSPATVKSPGEAKSPSEAKSPAEAKSPAEAKSPAEAKSPAEVKSPGEAKSPAEPKSPAEAKSPAEVKSPAEAKSPAEVKSPGEAKSPAAVKSPAEAKSPAAVKSPGEAKSPGEAKSPAEAKSPAEAKSPIEVKSPEKAKTPVKEGAKSPAEAKSPEKAKSPVKEDIKPPAEAKSPEKAKSPVKEGAKPPEKAKPLDVKSPEAQTPVQEEAKHPTDIRPPEQVKSPAKEKAKSPEKEEAKTSEKVAPKKEEVKSPVKEEVKAKEPPKKVEEEKTLPTPKTEAKESKKDEAPKEAPKPKVEEKKETPTEKPKDSTAEAKKEEAGEKKKAVASEEETPAKLGVKEEAKPKEKTETTKTEAEDTKAKEPSKPTETEKPKKEEMPAAPEKKDTKEEKTTESRKPEEKPKMEAKVKEDDKSLSKEPSKPKTEKAEKSSSTDQKESQPPEKTTEDKATKGEK
modifications: full-length
  Average logFC: 1.284
  M1-1 Log2 Median Normalized: 1.432
  M1-2 Log2 Median Normalized: 1.357
  M2-1 Log2 Median Normalized: 1.1695
  M2-2 Log2 Median Normalized: 1.176
  change: up

Reference: US11994512B2, “Single-cell genomic methods to generate ex vivo cell systems that recapitulate in vivo biology with improved fidelity” (Massachusetts Institute of Technology, priority 2018, dated 2024)
